In publication PMC9942874 (Immunity, 2023):
Substitutions are numbered along the chain they refer to.

B1: RUPA-126 (antibody, V domains shown)
VH: QVQLVQSGAEVKKPGASVTVSCKASGYTFTDYYLHWVRQAPGHGLEWMGWINPNSGITEYAQKFQGRVTVTRDTSISTIYMDLSRLRSDDTAIYYCVRRERGSPYTLFDYWGQGTLVIVSS
VL: QSVLTQPPSASGTPGQRVTISCSGGDSNIGTNYGYWYQQFPGTAPKLLIYWNNRRPSGVPDRFSGSKSGTSVFLAISGLRSEDEADYYCAAWDDSLSAPVFGGGTKLTVI
notes: also called RUPA-126 (IgG1)
B2: RUPA-133 (antibody, V domains shown)
VH: QVQLVQSGAEVKKPGASVNVSCMPSGYTFSDYFLHWVRQAPGQGLEWMGWINPNSGLTKYAQKFQGRVTMTSDTSISTVYLDLSRLRSDDTAIYFCVRRERGSPYTLFDYWGQGTLVTVSS
VL: B1 VL with D26A, G34V, F40L, F73S, A98G
notes: also called RUPA-133 (IgG1)
B3: RUPA-39 (antibody, V domains shown)
VH: DVQLVESGGGLVKPGGSLRLSCAASGFTFSSYTMNWVRQAPGKGLEWVSSISTNIRYIYYADSVKGRFTISRDNAKNSLFLQMDSLRAEDTAVYYCATIAGPLSLKGDFYFDSWGQGTLVTVSS
VL: EIVMTQSPATLSVSPGERATLSCRASQSVSSSLAWYQQKPGQAPRLLIHGASTRATGIPTRFSGSGSGTEFTLTISSLQSEDFAVYYCQQYANWPPWTFGQGTKVESK
notes: also called RUPA-39 (IgG1)
B4: RUPA-55 (antibody, V domains shown)
VH: B3 VH with S30N, Y110F, S124P
VL: B3 VL
notes: also called RUPA-55 (IgG1)
B5: RUPA-115 (antibody, V domains shown)
VH: EVQLVESGGGLVQPGRSLRLFCAASGFNFDDYAMHWVRQAPGKGLEWVSGISWNSGTLAYADFVMGRFTISRDTAKNSLYLQMNSLRAEDTAFYYCAKDLKKYISSSLDYWGQGTLVTVFS
VL: QSALTQPRSVSGSPGQSVTISCTGTSSDVGAYNFVSWFQHHPGKAPKLMIYDVTKRPSGVPDRFSASKSGNTASLTISGLQAEDEAEYYCCSYAGTYHVVFGGGTKLTVL
notes: also called RUPA-115 (IgG1)
B6: RUPA-73 (antibody, V domains shown)
VH: EPQLVESGGGLVQPGRSLRLSCAGSGFTFGDYAMHWVRQAPGKGLEWVSGISWNSGTLAYAVFVEGRFTISRDNAKNSLYLQMNSLRPEDTAFYYCAKDVKNYVSGGCSDWGQGSLVTVSS
VL: B5 VL with A31G, N33E, F38Y, H40Q, H41Y, M49I, D62A, R63H, E87D, V100L
notes: also called RUPA-73 (IgG1)
B7: RUPA-62 (antibody, V domains shown)
VH: EVQLVESGGGLVQPGRSLRLSCAASGFTFDDYAMHWVRQAPGKGLEWVSGISWNSGSIGYADSVNGRFTISRDNAKKSLYLQMNSLRPEDTALYYCAKDTHEYSSSPGDYWGQGTLVTVSS
VL: B5 VL with A31G, N33T, F38S, H40Q, T54S, A66G, E87D
notes: also called RUPA-62 (IgG1)
B8: RUPA-96 (antibody, V domains shown)
VH: B5 VH with F21S, A24V, N28T, D31N, M83L, A88T, F93L, L100I, K102M
VL: B5 VL with I20V, S26N, M49I, V53I
notes: also called RUPA-96 (IgG1)
B9: RUPA-38 (antibody, V domains shown)
VH: EVQLVESGGGLVQPGRSLRLSCAVSGFNFEDYAMHWVRQTPGKGLEWVSGISWNSGTLAYGDFVQGRFIISRDNAKNFLYLQMNSLRPEDTALYYCANDRMRWIQVPHYWGQGTLVTVSS
VL: B5 VL with Q1L, S26N, S27D, A31E, F34Y, F38Y, H40Q, E87N, V99M
notes: also called RUPA-38 (IgG1)
B10: RUPA-103 (antibody, V domains shown)
VH: EVQLVESGGGLVKPGGSLRLSCAASGFTFSSYSMNWVRQAPGKGLEWVSSISSGSSYKYYSDSVKGRFTISRDNAKNSLYLQMNTLRAEDTAVYYCARAPEPGLLWFGEWGDYWGQGTLVTVSS
VL: EIVLTQSPVTLSLSPGERATLSCRASQSISSSLAWYQQKPGQAPRLLIYDASNRATGIPARFSGSGSGTDFTLTISSLEPEDFAVYYCQQRSIWPPITFGQGTRLEIQ
notes: also called RUPA-103 (IgG1)
B11: 15C5 (IgG1) (antibody, V domains shown)
VH: DVQLQESGPGLVNPSQSLSLTCSVTGYSITSDYYWNWIRQFPGNKLEWMGYITYDGTNNYNPFFKNRISITRDTSQNQFFLKLNSVTTEDTATYYCARDGRYWYFDVWGAGTTVTVSS
VL: QIVLTQSPTLMSAFPGEKVTMTCSASSSVSYMYWYQQKPGSSPKPWIYLTSNLASGVPARFSGSGSGTSYSLTISSMEAEDAATYYCQQWNNSPPTFGAGTKLELK
notes: also called humanized analog of the 15C5 mouse mAb
B12: RUPA-32 (antibody, V domains shown)
VH: EVQLVESGGGLVKPGGSLRLSCAASGFAFSTYAMSWVRQAPGKGLEWVSSISESSSYTYYTDSVKGRFTISRDNAKKSLFLHMNSLRAEDTAVYYCARSDGLSMIAAPFDYWGQGARVTVSS
VL: EIVLTQSPATLSLSPGERATLSCRTSQSLSISLVWYQQKPGQAPRLLISDASNRAPGIPARFSASGSGTDFTLTISSLEPEDFAVYYCQQRSNWPPITFGQGTRLEMK
notes: also called RUPA-32 (IgG1)
B13: RUPA-33 (antibody, V domains shown)
VH: EVQLVESGGGLVQPGRSLRLSCAASGFTFDDYAVHWVRQVPGKGLEWVSGISWNSATLAYADSVTGRFTISRDNARNSLYLQMNSLRIEDTALYYCARALPERTYGHRAFDYWGRGTQVTVSS
VL: QSALTQPRSVSGSPGQSVTISCTGTSSDVGYFTFVSWYQQHPGEVPKLIIYDVTKRPSGVPDRFSGSKSGNTASLTISGLQSDDEADYYCCSYAGTYHIRFGGGTKLTVL
notes: also called RUPA-33 (IgG1)
B14: RUPA-137 (antibody, V domains shown)
VH: QITLKESGPALVKPTQTLTLTCTFSGFSLTSSGVGVVWVRQPPEKALEWLALIYWDDDRRYSPSLETRLNISKDTSKNQVVLTMTNMDPLDTATYFCAHSRASGWYGYWGQGTLVTVSS
VL: QSVLTQPPSASGTPGQRVTISCSGSRSNLGTNFVYWYQQLPGTAPKLLIYKNYQRPSGVPDRFSGSKSGTSASLSISGLRSEDEADYYCAAWDDNLNGFYVFGTGTKLTVV
notes: also called RUPA-137 (IgG1)
B15: RUPA-136 (antibody, V domains shown)
VH: EVQLVESGGGLVRPGGSLRLSCAASGFNFSAYGMNWVRQAPGRGLEWISYISHNTSIIHYADSVKGRFTISRDNGANSLYLQLNTLRDGDTAVYYCVRDCATLIGGRLPICQYFFDYWGQGALVTVSS
VL: SYELTQPSSVSVSLGQTASITCSGDMLTGKYVRWFQQKPGQAPILVIYKDRKRPSGIPDRFSGSSSGTTVTLIINGARIEDEADYYCYSAAARKRVFGGGTKLTVL
notes: also called RUPA-136 (IgG1)
B16: RUPA-135 (antibody, V domains shown)
VH: EVQLVDSGGGLVQPGGSLKLTCATSGFFFSGSAMHWVRQASGKGLEWVGRIRSKGNNYATAYAASVKGRFTISRDDSKNTAYLQMDSLKTEDTAVYYCSSRNSKVPDYWGQGTLVTVSS
VL: QSVLTQPPSASGTPGQRVTIFCSGSSSNIGSNFVYWYQQLPGAAPKLLIYRNHQRPSGVPDRLSGSKSGTSASLAISGLRSEDEADYYCAAWDDSLNVQVFGGGTKVTVL
notes: also called RUPA-135 (IgG1)

What was measured:
Pfs230 C1 [1] = biological target: T1, Pfs230 C1 (Plasmodium falciparum 3D7 (clone of …, UniProt P68874)); test: ELISA; details: both partners purified
T1 sequence (P68874 443-731): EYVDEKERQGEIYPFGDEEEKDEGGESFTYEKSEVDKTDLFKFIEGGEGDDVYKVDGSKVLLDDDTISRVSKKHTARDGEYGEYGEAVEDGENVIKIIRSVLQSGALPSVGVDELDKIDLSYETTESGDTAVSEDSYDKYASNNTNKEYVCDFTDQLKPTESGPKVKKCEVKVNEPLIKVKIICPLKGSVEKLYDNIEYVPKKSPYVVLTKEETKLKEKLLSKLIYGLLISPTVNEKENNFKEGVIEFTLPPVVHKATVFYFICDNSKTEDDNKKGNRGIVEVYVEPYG

[2] = biological target: native Pfs230 (gametocyte extract) (Plasmodium falciparum NF54 (3D7 is its …, UniProt P68874)); test: […]; 5 μg/ml mAb in PBST; […]; details: one partner purified
Chain of native Pfs230 (gametocyte extract) (Plasmodium falciparum NF54 (P68874 21-3135): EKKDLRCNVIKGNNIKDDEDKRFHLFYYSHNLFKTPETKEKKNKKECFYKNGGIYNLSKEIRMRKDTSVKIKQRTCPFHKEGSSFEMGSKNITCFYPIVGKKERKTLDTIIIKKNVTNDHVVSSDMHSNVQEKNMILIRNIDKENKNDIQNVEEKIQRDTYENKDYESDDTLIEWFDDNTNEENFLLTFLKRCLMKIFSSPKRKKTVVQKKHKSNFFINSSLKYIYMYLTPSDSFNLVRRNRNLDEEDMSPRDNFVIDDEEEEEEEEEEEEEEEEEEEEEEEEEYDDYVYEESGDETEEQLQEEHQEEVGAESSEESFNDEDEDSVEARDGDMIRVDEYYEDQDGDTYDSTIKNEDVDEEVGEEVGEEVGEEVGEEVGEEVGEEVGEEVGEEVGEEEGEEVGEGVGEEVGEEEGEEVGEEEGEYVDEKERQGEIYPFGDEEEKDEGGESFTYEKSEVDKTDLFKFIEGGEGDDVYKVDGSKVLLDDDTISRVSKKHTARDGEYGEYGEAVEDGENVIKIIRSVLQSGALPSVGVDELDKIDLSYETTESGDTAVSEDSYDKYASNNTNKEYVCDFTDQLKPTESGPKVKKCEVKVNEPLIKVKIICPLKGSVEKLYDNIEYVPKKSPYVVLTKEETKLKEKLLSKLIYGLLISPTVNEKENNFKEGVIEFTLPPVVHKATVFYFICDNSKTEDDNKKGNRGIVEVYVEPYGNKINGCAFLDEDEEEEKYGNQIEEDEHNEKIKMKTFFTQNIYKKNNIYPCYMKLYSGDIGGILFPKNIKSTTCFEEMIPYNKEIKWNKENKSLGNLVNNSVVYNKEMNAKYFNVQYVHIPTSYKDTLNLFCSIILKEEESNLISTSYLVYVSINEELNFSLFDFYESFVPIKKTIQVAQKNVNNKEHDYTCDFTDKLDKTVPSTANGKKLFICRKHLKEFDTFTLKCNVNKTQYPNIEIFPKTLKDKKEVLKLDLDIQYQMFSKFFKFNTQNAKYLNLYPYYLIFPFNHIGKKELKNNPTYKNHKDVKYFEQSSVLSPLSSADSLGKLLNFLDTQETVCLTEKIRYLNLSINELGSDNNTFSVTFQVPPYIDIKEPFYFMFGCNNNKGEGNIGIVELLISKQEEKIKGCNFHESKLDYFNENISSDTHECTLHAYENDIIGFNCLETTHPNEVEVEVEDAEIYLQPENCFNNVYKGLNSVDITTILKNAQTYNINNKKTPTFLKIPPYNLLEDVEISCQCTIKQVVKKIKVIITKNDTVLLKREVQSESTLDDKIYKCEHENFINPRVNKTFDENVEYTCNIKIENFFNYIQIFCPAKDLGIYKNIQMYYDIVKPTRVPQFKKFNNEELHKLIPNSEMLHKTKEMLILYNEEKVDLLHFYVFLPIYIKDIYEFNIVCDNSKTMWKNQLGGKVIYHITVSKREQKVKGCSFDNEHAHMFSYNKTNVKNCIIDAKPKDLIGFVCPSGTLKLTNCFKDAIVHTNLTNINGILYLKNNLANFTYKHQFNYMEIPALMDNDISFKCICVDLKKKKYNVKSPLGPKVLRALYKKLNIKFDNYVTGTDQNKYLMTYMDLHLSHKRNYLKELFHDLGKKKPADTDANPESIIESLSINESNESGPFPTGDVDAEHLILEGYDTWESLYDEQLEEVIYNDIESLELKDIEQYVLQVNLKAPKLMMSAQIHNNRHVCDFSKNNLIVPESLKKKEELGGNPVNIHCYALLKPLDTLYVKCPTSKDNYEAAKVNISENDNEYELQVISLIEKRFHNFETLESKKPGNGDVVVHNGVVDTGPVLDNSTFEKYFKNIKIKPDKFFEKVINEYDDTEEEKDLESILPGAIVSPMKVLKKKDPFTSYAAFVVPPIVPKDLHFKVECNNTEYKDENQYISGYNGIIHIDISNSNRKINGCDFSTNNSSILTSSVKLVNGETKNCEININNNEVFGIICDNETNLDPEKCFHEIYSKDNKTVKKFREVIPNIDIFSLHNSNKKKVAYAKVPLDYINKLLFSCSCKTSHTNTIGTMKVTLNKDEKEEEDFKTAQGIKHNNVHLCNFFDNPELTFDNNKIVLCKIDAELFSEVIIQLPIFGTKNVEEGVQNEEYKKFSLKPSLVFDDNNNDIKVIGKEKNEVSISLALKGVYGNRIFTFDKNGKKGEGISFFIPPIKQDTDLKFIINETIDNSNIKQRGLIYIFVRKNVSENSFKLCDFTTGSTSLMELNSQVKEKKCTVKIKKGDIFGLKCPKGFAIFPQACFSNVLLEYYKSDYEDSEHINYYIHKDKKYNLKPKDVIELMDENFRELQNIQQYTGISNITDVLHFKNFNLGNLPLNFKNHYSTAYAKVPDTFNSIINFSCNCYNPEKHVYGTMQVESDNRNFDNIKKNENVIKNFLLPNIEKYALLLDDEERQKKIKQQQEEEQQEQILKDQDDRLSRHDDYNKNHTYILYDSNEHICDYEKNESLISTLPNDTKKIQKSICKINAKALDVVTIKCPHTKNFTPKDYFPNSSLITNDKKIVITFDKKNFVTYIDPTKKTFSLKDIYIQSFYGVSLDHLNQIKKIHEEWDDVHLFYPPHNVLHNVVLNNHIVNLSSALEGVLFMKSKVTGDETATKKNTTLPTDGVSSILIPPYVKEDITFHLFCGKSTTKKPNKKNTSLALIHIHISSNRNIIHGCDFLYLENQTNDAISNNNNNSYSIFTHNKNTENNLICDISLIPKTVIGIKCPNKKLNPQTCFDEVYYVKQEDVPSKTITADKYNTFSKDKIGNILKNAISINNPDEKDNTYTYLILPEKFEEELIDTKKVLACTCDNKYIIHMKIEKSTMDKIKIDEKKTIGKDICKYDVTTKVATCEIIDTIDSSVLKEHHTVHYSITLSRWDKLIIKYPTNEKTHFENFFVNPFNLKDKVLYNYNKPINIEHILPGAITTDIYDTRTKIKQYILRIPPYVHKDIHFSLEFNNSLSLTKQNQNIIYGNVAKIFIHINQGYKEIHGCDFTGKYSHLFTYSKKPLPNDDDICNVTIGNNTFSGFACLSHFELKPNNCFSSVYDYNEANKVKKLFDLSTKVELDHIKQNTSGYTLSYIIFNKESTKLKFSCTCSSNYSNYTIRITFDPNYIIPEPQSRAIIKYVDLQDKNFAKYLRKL

Pfs230 C1 [3] = biological target: T1, Pfs230 C1; test: SPR; details: both partners purified
Pfs230 Pro = Pfs230 Pro (Plasmodium falciparum 3D7 (clone of …, UniProt P68874)); test: ELISA; details: both partners purified
Chain of Pfs230 Pro (Plasmodium falciparum 3D7 (P68874 443-590): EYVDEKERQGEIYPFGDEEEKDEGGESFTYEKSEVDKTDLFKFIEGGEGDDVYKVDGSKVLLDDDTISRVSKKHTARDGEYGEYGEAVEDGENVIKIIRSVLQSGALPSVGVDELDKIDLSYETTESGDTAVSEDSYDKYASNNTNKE

Binder	binding result (Pfs230 C1 [1])	binding result [2]	binding result (Pfs230 C1 [3])	binding result (Pfs230 Pro)
B1	binds	binds	–	–
B2	binds	binds	–	–
B3	binds	binds	–	–
B4	binds	binds	–	–
B5	binds	binds	–	–
B6	binds	binds	–	–
B7	binds	binds	–	–
B8	binds	binds	–	–
B9	binds	binds	–	–
B10	binds	binds	–	–
B11	–	–	binds	–
B12	binds	binds	–	–
B13	binds	binds	–	–
B14	binds	–	–	binds
B15	binds	–	–	binds
B16	binds	–	–	binds
